Results as given in patent publication US20230220589A1.

Key:
[1] = target: M44-modified A NTAA target peptides (M44-A-P2-peptide); assay: encoding assay; P2 H
[2] = target: M44-modified D NTAA target peptides; assay: encoding assay; P2 H;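 further: fraction of recording tags encoded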
[3] = target: M44-modified F NTAA target peptides (M44-F-P2-peptide); assay: encoding assay; P2 H;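 further: fraction of recording tags encoded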
[4] = target: M44-modified H NTAA target peptides; assay: encoding assay; P2 H
[5] = target: M44-modified I NTAA target peptides (M44-I-P2-peptide); assay: encoding assay; P2 H
[6] = target: M44-modified L NTAA target peptides (M44-L-P2-peptide); assay: encoding assay; P2 H;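 further: fraction of recording tags encoded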
[7] = target: M44-modified M NTAA target peptides; assay: encoding assay; P2 H
[8] = target: M44-modified N NTAA target peptides; assay: encoding assay; P2 H
[9] = target: M44-modified P NTAA target peptides; assay: encoding assay; P2 H;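 further: fraction of recording tags encoded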
[10] = target: M44-modified Q NTAA target peptides; assay: encoding assay; P2 H
[11] = target: M44-modified T NTAA target peptides; assay: encoding assay; P2 H
[12] = target: M44-modified V NTAA target peptides; assay: encoding assay; P2 H;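 further: fraction of recording tags encoded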
[13] = target: M44-modified W NTAA target peptides; assay: encoding assay; P2 H;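 further: fraction of recording tags encoded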
[14] = target: M44-modified Y NTAA target peptides (M44-Y-P2-peptide); assay: encoding assay; P2 H;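 further: fraction of recording tags encoded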
[15] = target: M44-modified A NTAA target peptides (M44-A-P2-peptide); assay: encoding assay; P2 L
[16] = target: M44-modified D NTAA target peptides; assay: encoding assay; P2 L;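 further: fraction of recording tags encoded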
[17] = target: M44-modified E NTAA target peptides; assay: encoding assay; P2 L;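 further: fraction of recording tags encoded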
[18] = target: M44-modified F NTAA target peptides (M44-F-P2-peptide); assay: encoding assay; P2 L;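 further: fraction of recording tags encoded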
[19] = target: M44-modified G NTAA target peptides (M44-G-P2-peptide); assay: encoding assay; P2 L;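 further: fraction of recording tags encoded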
[20] = target: M44-modified H NTAA target peptides; assay: encoding assay; P2 L
[21] = target: M44-modified I NTAA target peptides (M44-I-P2-peptide); assay: encoding assay; P2 L
[22] = target: M44-modified L NTAA target peptides (M44-L-P2-peptide); assay: encoding assay; P2 L;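 further: fraction of recording tags encoded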
[23] = target: M44-modified M NTAA target peptides; assay: encoding assay; P2 L
[24] = target: M44-modified N NTAA target peptides; assay: encoding assay; P2 L
[25] = target: M44-modified P NTAA target peptides; assay: encoding assay; P2 L;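 further: fraction of recording tags encoded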
[26] = target: M44-modified Q NTAA target peptides; assay: encoding assay; P2 L
[27] = target: M44-modified S NTAA target peptides; assay: encoding assay; P2 L
[28] = target: M44-modified T NTAA target peptides; assay: encoding assay; P2 L
[29] = target: M44-modified V NTAA target peptides; assay: encoding assay; P2 L;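 further: fraction of recording tags encoded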
[30] = target: M44-modified W NTAA target peptides; assay: encoding assay; P2 L;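 further: fraction of recording tags encoded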
[31] = target: M44-modified Y NTAA target peptides (M44-Y-P2-peptide); assay: encoding assay; P2 L;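 further: fraction of recording tags encoded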
[32] = target: M44-modified D NTAA target peptides; assay: encoding assay; P2 N;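 further: fraction of recording tags encoded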
[33] = target: M44-modified E NTAA target peptides; assay: encoding assay; P2 N;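 further: fraction of recording tags encoded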
[34] = target: M44-modified F NTAA target peptides (M44-F-P2-peptide); assay: encoding assay; P2 N;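 further: fraction of recording tags encoded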
[35] = target: M44-modified H NTAA target peptides; assay: encoding assay; P2 N
[36] = target: M44-modified I NTAA target peptides (M44-I-P2-peptide); assay: encoding assay; P2 N
[37] = target: M44-modified L NTAA target peptides (M44-L-P2-peptide); assay: encoding assay; P2 N;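 further: fraction of recording tags encoded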
[38] = target: M44-modified M NTAA target peptides; assay: encoding assay; P2 N
[39] = target: M44-modified N NTAA target peptides; assay: encoding assay; P2 N
[40] = target: M44-modified Q NTAA target peptides; assay: encoding assay; P2 N
[41] = target: M44-modified S NTAA target peptides; assay: encoding assay; P2 N
[42] = target: M44-modified V NTAA target peptides; assay: encoding assay; P2 N;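 further: fraction of recording tags encoded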
[43] = target: M44-modified W NTAA target peptides; assay: encoding assay; P2 N;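 further: fraction of recording tags encoded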
[44] = target: M44-modified Y NTAA target peptides (M44-Y-P2-peptide); assay: encoding assay; P2 N;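 further: fraction of recording tags encoded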
[45] = target: M44-modified E NTAA target peptides; assay: encoding assay; P2 T;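 further: fraction of recording tags encoded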
[46] = target: M44-modified G NTAA target peptides (M44-G-P2-peptide); assay: encoding assay; P2 T;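 further: fraction of recording tags encoded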
[47] = target: M44-modified I NTAA target peptides (M44-I-P2-peptide); assay: encoding assay; P2 T
[48] = target: M44-modified L NTAA target peptides (M44-L-P2-peptide); assay: encoding assay; P2 T;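 further: fraction of recording tags encoded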
[49] = target: M44-modified T NTAA target peptides; assay: encoding assay; P2 T
[50] = target: M44-modified V NTAA target peptides; assay: encoding assay; P2 T;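 further: fraction of recording tags encoded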
[51] = target: M44-modified Y NTAA target peptides (M44-Y-P2-peptide); assay: encoding assay; P2 T;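 further: fraction of recording tags encoded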

B1: engineered M44-L binder (SEQ ID NO: 31) (designed binder, not shown: small tags and cut ends; large carriers)
chain: QDSTQNLIPAPPLISVPLQPGFWTERFQGRWFLVGFAGNAVQKERQSRLTMQSLILELQEDNSYNITAINVRGQGCRYIISTLVPSSRPGQFTLGNIHSYPQIQSLDVQVADTDYDQFAMVFLQGTSENKQYFEVALAGRTKGLSDELKERFVSFAKSLGLKDNNIVFSVPTDQCIDN
encoding yield [1]: 0.02 | encoding yield [2]: 0.02 | encoding yield [3]: 0.01 | encoding yield [4]: 0.02 | encoding yield [5]: 0.02 | encoding yield [6]: 0.02 | encoding yield [7]: 0.03 | encoding yield [8]: 0.03 | encoding yield [9]: 0.03 | encoding yield [10]: 0.03 | encoding yield [11]: 0.02 | encoding yield [12]: 0.02 | encoding yield [13]: 0.03 | encoding yield [14]: 0.05 | encoding yield [15]: 0.03 | encoding yield [16]: 0.03 | encoding yield [17]: 0.03 | encoding yield [18]: 0.06 | encoding yield [19]: 0.02 | encoding yield [20]: 0.03 | encoding yield [21]: 0.06 | encoding yield [22]: 0.46 | encoding yield [23]: 0.08 | encoding yield [24]: 0.17 | encoding yield [25]: 0.02 | encoding yield [26]: 0.04 | encoding yield [27]: 0.05 | encoding yield [28]: 0.02 | encoding yield [29]: 0.04 | encoding yield [30]: 0.05 | encoding yield [31]: 0.09 | encoding yield [32]: 0.01 | encoding yield [33]: 0.02 | encoding yield [34]: 0.01 | encoding yield [35]: 0.03 | encoding yield [36]: 0.03 | encoding yield [37]: 0.14 | encoding yield [38]: 0.02 | encoding yield [39]: 0.03 | encoding yield [40]: 0.02 | encoding yield [41]: 0.03 | encoding yield [42]: 0.04 | encoding yield [43]: 0.01 | encoding yield [44]: 0.05 | encoding yield [45]: 0.01 | encoding yield [46]: 0.04 | encoding yield [47]: 0.07 | encoding yield [48]: 0.15 | encoding yield [49]: 0.04 | encoding yield [50]: 0.04 | encoding yield [51]: 0.07

B2: engineered M44-L binder (SEQ ID NO: 21) (designed binder, not shown: small tags and cut ends; large carriers)
chain: QVSVQPNFQQDKFLGRWFYAGHASNSSWYREKVAALSMAKLVVAPATDGGLNATETFLRKNQCETITSLLQPAGSLGSYSSRSPHGGSTWSTSVVETDYDQYALLYLQGSKGPGEDFRGAILASRTQTPRAELKEKFTAFSKAQGFTEDTIVFLPQTDKCMTEQ
encoding yield [1]: 0.01 | encoding yield [2]: 0.01 | encoding yield [3]: 0.01 | encoding yield [4]: 0.01 | encoding yield [5]: 0.01 | encoding yield [6]: 0 | encoding yield [7]: 0.01 | encoding yield [8]: 0.01 | encoding yield [9]: 0.01 | encoding yield [10]: 0.01 | encoding yield [11]: 0.01 | encoding yield [12]: 0.01 | encoding yield [13]: 0.01 | encoding yield [14]: 0.02 | encoding yield [15]: 0.01 | encoding yield [16]: 0.01 | encoding yield [17]: 0.01 | encoding yield [18]: 0.01 | encoding yield [19]: 0.01 | encoding yield [20]: 0.01 | encoding yield [21]: 0.03 | encoding yield [22]: 0.22 | encoding yield [23]: 0.03 | encoding yield [24]: 0.02 | encoding yield [25]: 0.01 | encoding yield [26]: 0.02 | encoding yield [27]: 0.02 | encoding yield [28]: 0.01 | encoding yield [29]: 0.02 | encoding yield [30]: 0.02 | encoding yield [31]: 0.03 | encoding yield [32]: 0.01 | encoding yield [33]: 0.01 | encoding yield [34]: 0 | encoding yield [35]: 0.01 | encoding yield [36]: 0.09 | encoding yield [37]: 0.16 | encoding yield [38]: 0.02 | encoding yield [39]: 0.01 | encoding yield [40]: 0.01 | encoding yield [41]: 0.01 | encoding yield [42]: 0.03 | encoding yield [43]: 0.01 | encoding yield [44]: 0.01 | encoding yield [45]: 0.01 | encoding yield [46]: 0.01 | encoding yield [47]: 0.14 | encoding yield [48]: 0.1 | encoding yield [49]: 0.01 | encoding yield [50]: 0.02 | encoding yield [51]: 0.02
